Read-outs that look alike come from different tables or passages of the source.

Common to all, as to experiment: cell-based or functional assay
Experiment [1] deals with ACTR variant 1 (wild-type ACTR).
The target of experiment [2] is ACTR variant 26.
Experiment [3] addresses ACTR variant 127.
The target in experiment [4] is ACTR variant 103.
In experiment [5] the target is ACTR variant 93.
The target in experiment [6] is ACTR variant 94.
For experiment [7], the target named is ACTR variant 102.
Chain of ACTR variant 102 (chain, as listed by the source mutant limits assumed): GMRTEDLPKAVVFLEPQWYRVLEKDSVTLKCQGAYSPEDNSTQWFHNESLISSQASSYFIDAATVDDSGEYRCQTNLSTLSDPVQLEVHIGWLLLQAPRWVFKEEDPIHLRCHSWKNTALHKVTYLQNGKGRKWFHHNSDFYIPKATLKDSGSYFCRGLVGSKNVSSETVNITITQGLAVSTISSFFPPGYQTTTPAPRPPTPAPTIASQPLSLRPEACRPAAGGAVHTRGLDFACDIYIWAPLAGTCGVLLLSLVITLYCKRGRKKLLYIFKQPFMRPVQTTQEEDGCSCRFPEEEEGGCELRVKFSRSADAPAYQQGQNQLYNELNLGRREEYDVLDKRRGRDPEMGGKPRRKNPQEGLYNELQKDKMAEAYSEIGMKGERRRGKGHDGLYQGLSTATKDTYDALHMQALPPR
The target in experiment [8] is ACTR variant 131.
Chain of ACTR variant 131 (chain, as listed by the source mutant limits assumed): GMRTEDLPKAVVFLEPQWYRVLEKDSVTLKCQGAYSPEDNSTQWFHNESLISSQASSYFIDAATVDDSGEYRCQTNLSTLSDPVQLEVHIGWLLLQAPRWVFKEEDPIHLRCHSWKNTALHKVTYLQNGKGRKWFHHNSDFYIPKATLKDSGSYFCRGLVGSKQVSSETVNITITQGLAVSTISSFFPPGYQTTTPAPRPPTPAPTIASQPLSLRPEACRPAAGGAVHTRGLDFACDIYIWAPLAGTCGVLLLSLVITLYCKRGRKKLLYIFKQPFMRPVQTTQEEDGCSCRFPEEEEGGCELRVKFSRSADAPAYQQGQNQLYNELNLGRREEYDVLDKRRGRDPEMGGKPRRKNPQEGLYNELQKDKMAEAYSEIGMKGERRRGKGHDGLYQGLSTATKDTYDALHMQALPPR
Experiment [9] addresses ACTR variant 1 (wild-type ACTR). The source holds these as a separate data set.

B1: wild-type anti-BCMA antibody (antibody)
heavy: not shown
light: DIVLTQSPPSLAMSLGKRATISCRASESVTILGSHLIHWYQQKPGQPPTLLIQLASNVQTGVPARFSGSGSRTDFTLTIDPVEEDDVAVYYCLQSRTIPRTFGGGTKLEIKRTVAAPSVFIFPPSDEQLKSGTASVVCLLNNFYPREAKVQWKVDNALQSGNSQESVTEQDSKDSTYSLSSTLTLSKADYEKHKVYACEVTHQGLSSPVTKSFNRGEC
Take B1: the “Jurkat NFAT luciferase EC50” value in experiment [1] is below 20 nM.

B2: afucosylated Fc-enhanced anti-BCMA antibody (S239D, I332E) (antibody)
heavy: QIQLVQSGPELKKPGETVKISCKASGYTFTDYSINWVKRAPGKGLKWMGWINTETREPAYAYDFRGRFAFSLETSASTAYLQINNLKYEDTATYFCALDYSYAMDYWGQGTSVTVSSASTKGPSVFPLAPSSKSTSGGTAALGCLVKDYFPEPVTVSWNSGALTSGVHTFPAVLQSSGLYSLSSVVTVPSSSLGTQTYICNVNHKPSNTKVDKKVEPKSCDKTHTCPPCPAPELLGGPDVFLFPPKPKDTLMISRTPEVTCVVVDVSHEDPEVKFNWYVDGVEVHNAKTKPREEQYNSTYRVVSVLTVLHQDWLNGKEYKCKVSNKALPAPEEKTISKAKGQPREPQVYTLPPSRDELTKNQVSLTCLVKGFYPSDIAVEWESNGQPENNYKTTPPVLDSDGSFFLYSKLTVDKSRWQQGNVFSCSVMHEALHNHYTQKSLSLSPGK
light: DIVLTQSPPSLAMSLGKRATISCRASESVTILGSHLIHWYQQKPGQPPTLLIQLASNVQTGVPARFSGSGSRTDFTLTIDPVEEDDVAVYYCLQSRTIPRTFGGGTKLEIKRTVAAPSVFIFPPSDEQLKSGTASVVCLLNNFYPREAKVQWKVDNALQSGNSQESVTEQDSKDSTYSLSSTLTLSKADYEKHKVYACEVTHQGLSSPVTKSFNRGEC
modifications: afucosylated Fc glycan
B2: the “Jurkat NFAT luciferase EC50” value in [2] is 4.36 nM; in [3] it was 2.26 nM; in experiment [4], 8.44 nM; in [5] it was below 5 nM; in experiment [1], 0.17 nM; in experiment [6] it was 1.12 nM.

B3: afucosylated anti-BCMA antibody (antibody)
heavy: not shown
light: DIVLTQSPPSLAMSLGKRATISCRASESVTILGSHLIHWYQQKPGQPPTLLIQLASNVQTGVPARFSGSGSRTDFTLTIDPVEEDDVAVYYCLQSRTIPRTFGGGTKLEIKRTVAAPSVFIFPPSDEQLKSGTASVVCLLNNFYPREAKVQWKVDNALQSGNSQESVTEQDSKDSTYSLSSTLTLSKADYEKHKVYACEVTHQGLSSPVTKSFNRGEC
modifications: afucosylated Fc glycan
In the case of B3, the “Jurkat NFAT luciferase EC50” value is below 100 nM in experiment [5] and 1 nM in [1].

B4: Fc-enhanced anti-BCMA antibody (S239D, I332E) (antibody)
heavy: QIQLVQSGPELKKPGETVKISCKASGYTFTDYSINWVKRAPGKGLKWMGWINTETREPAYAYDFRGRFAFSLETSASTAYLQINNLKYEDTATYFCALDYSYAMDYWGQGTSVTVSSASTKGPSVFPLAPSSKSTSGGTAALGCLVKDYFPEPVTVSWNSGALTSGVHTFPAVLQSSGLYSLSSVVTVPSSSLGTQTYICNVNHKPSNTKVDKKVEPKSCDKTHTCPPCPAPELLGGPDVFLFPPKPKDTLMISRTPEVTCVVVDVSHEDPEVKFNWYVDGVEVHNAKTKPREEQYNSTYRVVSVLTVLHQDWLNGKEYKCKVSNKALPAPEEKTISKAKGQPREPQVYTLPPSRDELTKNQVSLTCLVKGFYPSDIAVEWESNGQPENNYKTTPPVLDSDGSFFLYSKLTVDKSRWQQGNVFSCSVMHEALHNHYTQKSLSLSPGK
light: DIVLTQSPPSLAMSLGKRATISCRASESVTILGSHLIHWYQQKPGQPPTLLIQLASNVQTGVPARFSGSGSRTDFTLTIDPVEEDDVAVYYCLQSRTIPRTFGGGTKLEIKRTVAAPSVFIFPPSDEQLKSGTASVVCLLNNFYPREAKVQWKVDNALQSGNSQESVTEQDSKDSTYSLSSTLTLSKADYEKHKVYACEVTHQGLSSPVTKSFNRGEC
Take B4: the “Jurkat NFAT luciferase EC50” value in experiment [3] was below 100 nM; in [1] it was 0.83 nM; in experiment [6], below 100 nM.

B5: Fc-enhanced anti-CD19 antibody (antibody, V domains shown)
VH: EVQLVESGGGLVKPGGSLKLSCAASGYTFTSYVMHWVRQAPGKGLEWIGYINPYNDGTKYNEKFQGRVTISSDKSISTAYMELSSLRSEDTAMYYCARGTYYYGTRVFDYWGQGTLVTVSS
VL: DIVMTQSPATLSLSPGERATLSCRSSKSLQNVNGNTYLYWFQQKPGQSPQLLIYRMSNLNSGVPDRFSGSGSGTEFTLTISSLEPEDFAVYYCMQHLEYPITFGAGTKLEIKR
For B5, the entries for the “Jurkat NFAT luciferase EC50” value in experiment [7], in experiment [8] and in [9] were 2.2 nM, 2 nM and 0.26 nM, respectively.

Source of the values: patent US20190112349A1 (UNUM THERAPEUTICS, published 2019).
